The values below come from CN117460833A (dated 2024).

Where a chain is given by its changes, count along the chain named.

This experiment has as its target 重组小鼠ROR1 IgG2-Fc融合蛋白 (R&D系统公司, 目录号9910-RO-050) (mouse, UniProt Q9Z139 30-403). Description: ELISA, coated mouse ROR1 IgG2-Fc, antibody dilutions, anti-human IgG Fc-HRP.

Sequence of 重组小鼠ROR1 IgG2-Fc融合蛋白 (R&D系统公司, 目录号9910-RO-050) (Q9Z139 30-403 limits assumed): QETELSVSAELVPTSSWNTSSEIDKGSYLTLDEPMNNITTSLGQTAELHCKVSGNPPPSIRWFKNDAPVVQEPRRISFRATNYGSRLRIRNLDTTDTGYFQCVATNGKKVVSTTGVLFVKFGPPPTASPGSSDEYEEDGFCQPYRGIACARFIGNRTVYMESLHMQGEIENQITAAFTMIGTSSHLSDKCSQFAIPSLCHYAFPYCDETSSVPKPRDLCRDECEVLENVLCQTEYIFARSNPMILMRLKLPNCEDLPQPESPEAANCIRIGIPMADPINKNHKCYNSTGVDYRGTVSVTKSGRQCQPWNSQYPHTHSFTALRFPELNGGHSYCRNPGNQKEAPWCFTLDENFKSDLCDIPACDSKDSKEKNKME

B1: s10 (RO6D8-s10) 抗ROR1单克隆抗体 (antibody, V domains shown)
VH: QVQLVQSGAEVKKPGASVKVSCKASGYTFTNYYMHWVRQAPGQGLEWMGIINPSGGSTSYAQKFQGRVTMTRDTSTSTVYMELSSLRSEDTAVYYCARSSRSSYYLWVLDLWGQGTTVTVSS
VL: AIQMTQSPSSLSASVGDRVTITCRASQGVSTEIAWYQQKPGKAPKLLIYAASSLQSGVPSRFSGSGSGTDFTLTISSLQPEDFATYYCQQFNSYPITFGQGTRLEIK
As for B1, the binding result is given as “binds”.

B2: jlv1011 (RO6D8-jlv1011) 抗ROR1单克隆抗体 (antibody, V domains shown)
VH: QVQLVQSGAEVKKPGASVKVSCKASGYTFTSKYYHWVRQAPGQGLEWMGIINPTSGSTSYAQKFQGRVTMTRDTSTSTVYMELSSLRSEDTAVYYCARDSSRYSGWYFDLWGQGTTVTVSS
VL: B1 VL with M4L, F91Y, N92Y, S93G, T97A
In the case of B2, the binding result is reported as “binds”.
